Test: soluble on expression in E. coli; label from the status in PepcDB or PDB records

| Sequence | soluble on expression in E. coli |
| --- | --- |
| GSMLHGLKQRLEALHHPGELEGSPQNLHQLLGVSIEQSVPQAQTMLVERHLASLTGDEARLLAALSDGSAFALLTLYSGSRFSRGEVLYRYSNAGRAAGIQCNDFIALYLNHLFAQGLVIASDFTESLRTDYELCEGDSDFRKAQAELQIHLPKLSIRRETLRISPLGRQLWTLMTTPADIEEGH | soluble |
| DLKILDPIWTTAYITRNHGYMVYDTLFSLDAQGNIQPQMVDTVTTSEDGLMVTMTLRDGLVWHDGAPVTAADCVASINRWGSKDAMGQKMMSFVESLEATDDKTITFKLSTPTGLVTLALAKPSSNVPFMMPERVASTPSSEQIADYTGSGPFVFRQ | not soluble |
| MSLRPQFEREQWLNLNGTWTFDFDFGKSGKDRRLQSAEKFDKNITVPFCPESKLSGVGYTDFIEQMWYQRNITIPSDWNGKKIFLNFGAVDYCAEIYVDGKFVQRHFGGSSSFAVDLTRYVTPGKTHNLVVFVQDDLRSGLQTGGKQCGNYYSGGCSYTRTTGIWQTVWMEAVSTDGLKSVFVRPDIDQKQLIIEPEFYNESANTLEIILKDGNKTVAKKSVNCANSSVVVLPVKNMKLWSPEDPFLYDLVYQVKDAKGNVLDEVKSYAGMRKVHTANGRFYLNNQPYFQRLVLDQGFYPEGIWTAPSDEDLKNDIVLGKEAGFNGARLHQKVFEERYYYWADKLGYITWGESASWMLDVNKELAARNFLGEWSEVVVRDRNHPSLVTWTPFNETWGGGPDAYVRLVRDVYNITKAIDPTRPVNDASGDNHVITDIWSVHNYEQDRAKLTEQLKMEEGKEPYRNARDKDFLAVYEGQPYMVDEFGGIPWMAEKDRKNSWGYGGMPENAEAFYKRLEGQIDAFIDSPHVTGFCYTQLTDVEQEKNGIYYYDRTPKLDMKRIKAIFEKIKEGHHHHHH | soluble |
| MGDDLPDWRNKLEPVFLEFEDGCVPEEHYYPCIRRREDEEPKISAEEEYYLMVKEVEDSKGFDIDFAKFRCVFNYRPVDLDDNELALEPETTREFMDRLCRKSLEHFNEIHSTKYEFVRFIKANHHVSAGMMYFITFEGKLLSNDDDSKQFQAKLCYCGGTPEIISCELKP | soluble |
| LKPYCRPSTSVVLQGLPMVARKTLFMLPDGGGSAFSYASLPRLKSDTAVVGLNCPYARDPENMNCTHGAMIESFCNEIRRRQPRGPYHLGGWSSGGAFAYVVAEALVNQGEEVHSLIIIDAPIPQAMEQLPRAFYEHCNSIGLFATQPGASPDGSTEPPSYLIPHFTAVVDVMLDYKLAPLHARRMPKVGIVWAADTVMDERDAPKMKGMHFMIQKRTEFGPDGWDTIMPGASFDIVRADGANHFTLMQKEHVSIISDLIDRVMA | soluble |
| MFRNVAELVALAEKDSIKIAEVMIRQEVEVSGRSREEVIAQMDHHLSVMERAVERGLEGVVSRSGLTGGDAVRMQRYIEGGRFLSGETILDAVSKAMATNEVNAAMGVICATPTAGAAGVVPGTLFAVKEKLRPTRMEMIEFLFTAGAFGYVVANNASISGAAGGCQAEVGSAAGMAAAALVELAGGTPGQAAEAMAIALKNMLGLVCDPVAGLVEVPCVKRNAMGAANAMIAADMALAGIKSRIPCDEVIEAMYRIGAAMPVALKETAQGGLAATPTGRAIAARIFGASAASK | not soluble |
| METGAGIGLYPLHRCKTIYLVRHAQGIHNVDGEKNYKAYMSHDYFDAELTQLGWKQVDSLRKHVHSSGLHKKIELVISSPLMRTLQTAVGVFGGEGYTDMSDVLPLMVANAGNSSRAAISSLNCPPVITEESCREHLGVHPCDQRRSISDYQFLFPAVDFSLIESEEDKLWKADVRETIEELAARGKKFLNWLWTRKEKEIAIVTHSGFLFHTLNALQNECHPDVKKEICGHFANCELRSMVIVDRSMLGSDSSVTDYPGKIPKGIDLPSDAVVDDNNIKVE | soluble |

Source: the DeepSol protein solubility set
